In patent WO2019006280A1 (dated 2019):

Target: T1, cell-surface CD33 on the CD33-positive AML cell line MV4-11 (UniProt P20138 18-364)
T1 construct: whole, on cells; Endogenous CD33 of the MV4-11 cell line; also called cell-surface expressed CD33; CD33-postive MV4-11 cells
Assay: flow cytometry on MV4-11 cells, binder at 10 ug/ml, PE anti-flag

T1 sequence (P20138 18-364 limits assumed): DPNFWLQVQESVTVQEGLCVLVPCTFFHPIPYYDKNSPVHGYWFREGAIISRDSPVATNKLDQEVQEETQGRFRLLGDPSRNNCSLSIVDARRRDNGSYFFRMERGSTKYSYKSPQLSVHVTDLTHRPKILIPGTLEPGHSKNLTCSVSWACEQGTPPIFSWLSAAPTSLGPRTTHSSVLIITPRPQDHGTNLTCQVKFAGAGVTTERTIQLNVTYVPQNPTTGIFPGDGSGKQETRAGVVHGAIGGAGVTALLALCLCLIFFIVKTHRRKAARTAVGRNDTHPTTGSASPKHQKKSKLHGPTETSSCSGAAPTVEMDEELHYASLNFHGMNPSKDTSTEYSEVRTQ

B1: ml033-2 VH domain antibody (VHH)
VHH: EVQLVESGGGLVQPGGSLRLSCAASGFTFSSYGMSWVRQAPRKGLEWIGEINHSGSTNYNPSLKSRVTISRDNSKNTLYLQMNSLRAEDTATYYCARPLNYYYYYMDVWGKGTTVTVSS
notes: also called single domain antibody ml 033-2; m1033-2; not shown: His and Flag tags
Question: Does B1 bind?
Answer: Result: binds
